Experiment: yeast display, Sf9 membrane polyspecificity reagent, FACS + sequencing; frameworks hold sequencing errors
Method in brief: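 After 36–48 hours of galactose induction, yeast (Saccharomyces cerevisiae BJ5465) displaying a synthetic nanobody library were stained at 4 °C for 1 hour with 10% biotinylated, detergent-solubilized Sf9 membrane reagent. Streptavidin microbeads enriched the stained cells before FACS sorting into low and high (top ~1%) gates on anti-HA and streptavidin fluorescence. Each clone's polyreactivity label reflects its gate of origin.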

Sequence	polyreactivity (PSR sort gate)
QVQLVESGGGLVQEGGSLRLSCAATGSTFDANAMGWYRQAPGKERELVATISDGGSTNYADSVKGRFTISRDNAKNTVYLQMNSLKPEDTAVYYCAAVKLFLGLGYDYWGQGTQVTVSS	low polyreactivity
QVQLVESGGGLVQAGGSLRLSCAASGLTLYGYTMGWYRQAPGKERELGATITTGGDYTYYADSVKGRFTISRDNAKNTVYLQMNRLKPVDTAVYYCAAYSYGWDYSYDYWGQVTQVTVSS	low polyreactivity
QVQLVESGGGLVQAGGSLRLSCAASGSIFNENPMGSYRQAPGKERELVAVITHRTGSTYYADSVKGRFTISRDNAKYTFYLQLTSLTPEDTAVYYCATRTRRNRYRGGEYDYWGQGTQVTVSS	low polyreactivity
QFQLVESGGGLVQAGGSLRLSCAASGSTFGVYAMGWYRQAPGKERELVATINSGGSTNYADSVKGRFTISRDNAKNTVYLQMNSLKPEDTAVYYCAAGPFWQDFYVYEYDYWGQGTQVTVSS	low polyreactivity
QVQLQESGGGLVQACGIQRLSCAATGSISEGQDMGWYSRSPGKERECVAGIAPGATTYYADSLKGRFTISRDNAKKTVYLQMTSLKPEDTAVYYCAARSVTETDHDYWGQGSQVTVSS	low polyreactivity
QVQLVESGGGLVQAGGSLSLSCAASGSTFVPNLMGWYRQAPGKERELVAAITWSGGTTTFYADSVKGRFTISRDNAKNTVYLQMNSLKPEDTAVYYCAVTRGGQYYPYYYWGQGTQVTVSS	low polyreactivity
QVQLVESGGGLVQAGGSLRLSCAASGGTFYRYAMGWYRQAPGKERELVAVISKRGGTTYYADSVKGRFTISRDNAKITVYLQMNSLKPEDTAVYYCADRPYYWGQGTQVTVSS	high polyreactivity
QVQLVESGGGLVQAGGILRLSCAASGRIFVLNPMGWSRQAPGKERELVAASSGSGSRTYYADSVKGRFTISRDNAKNTVYLQMNSLKPEDTEVYYCNTVSRRSEHTYDYWGQGTQVTVSS	high polyreactivity
QVQLVESGGGLVQAGGSLRLSCAASGIIFNVNAMGWYRQAPGKERELVASINSGSTYYADSVKGRFTISRDNAKNTVYLQMNSLKPEDTAVYYCATGARSPPWGRSKKRTYYYWGQGTQVTVSS	high polyreactivity
QVQLVESGGVLVQAGGSLRLTCAASGSTFLYNAMGWYRQAPGKEREFVAAISGSGGTTYYADSVKGRFTISRDNAKNTVYLQMNSLKPEDTAVYYCAVSQSWYWYYASDYWGQGTQVTVSS	low polyreactivity
QVQLVESGGGLVQAGCSLRLRCAASGYTFYDYAMGWYRPAPGKERELVAASSSSGGSTYYADSVKGRFTISRDNAKNTGYLQMNSVKPEDTALYYCAVRARRWRYNYWGQGTQVTVSS	high polyreactivity
QVQLVESGGGLVQAGGSLRLSCAASGRTFGVNTMGWYRQAPGKERELVASISTSGGSTYADSVKGRFTISRDNAKNTVYLQMNSLKPEDTAVYYCAKDTDAVYDEYDSWGQGTQVTVSS	low polyreactivity
QVQLVESGGGLGQAGGSLRLSCAASGFIFGSYAMGWYRQAPGKARELVAAISWSGASTYYADSVKGRFTISRDNAKKTVYLQMNSLIPEDTAVYYCAAVSRYGWYDYWGQGTQVTVSS	high polyreactivity
QVQLVESGGGLVQAGGSLRLSCAASGNIFRVYDMGWYRQAPGKERELVPVIRWSSGRTYYADSVKGRFTISRDNAKNTVYLQMNSLKPEDTAVYYCATKLWRVPRNSHYDSYEYWGQGTQVTVSS	high polyreactivity
QVQLVESGGGLVQAGGSLRLSCAASGSIFKFYAMGWYRQAPGKERELVAAISSSGTSTYYADSVKGRFTISRDNAKNTVYLQMNSLKPEDTAVYYCAARGGVQNEVKGSPYYYWGQGTQVTVSS	high polyreactivity
QVQLVESGGGLVQAGGSLRLSCAASGSIFSYYAMGWYRQAPGKERELVAAISRSGASTSYADSVKGRFTISRDNAKNTVYLQMNSLKPEDTAVYYCAKRIYWRGSWGRYYYWGQGTQVTVSS	high polyreactivity

Sequence	polyreactivity (PSR sort gate)
QVQLVESGGGLVQAGGSLRLSCAASGSTFRGYAMGWYRQAPGKERELVAAISWSAGSTYYADSVKGRFTISRDNAKNTVYLQMNRLKPEDTAVYYCAKASVALRYFSYSLGRDYWGQGTQVTVSS	low polyreactivity
QVQLVESGGGLVQAGGSLGLSCAASGYSLGSYAMGWYRQAPGKERELVAAITSSGGSTYYADSVKGRFTSSRDYAKNTDYLQMNSLKPEDTAVYYCAAERGYHGGGSGLYDYWGQGTQVTVSS	low polyreactivity
QVQHVESGGGLVQAGGSLRLSCAASGSTFLYYAMGWSRQAPGKERELVARITTRVGRTYYADSVKGRFTISRDNAKNTVYLQMNSLKPEDTAVYYCAAYPDYSYYYWGQGTQVTVSS	high polyreactivity
QVQLVESGGGLVQAGGSLRLSCAASGFTFAGNARGWDRQSPGKERELVAAITSGGSTYYADSVKGRFTMSRDKAKNTVYLQMNSLKPEDTAVYYCAALVFRGRSFTHDYWGQGTQVTVSS	high polyreactivity
QVQLVESGGGLVQAGGSLRLSCAASDLQILCYGWYRQPPGKERELFASITRGDGSTYYADSVKGRFTISRDNAKNTVFIQMNSLKPEDTAVYYCADYNDWRDELYDYWGQGTQVTVSS	low polyreactivity
QVQLVESGGGLVQAGGSLRLSCAASGRTFHWYAMGGYRQAPGKERELVAAIRYSAGSTYYADSVKGRFTISRDNAKNTVYLQMNSLKPEDTAVYYCAAEPYPYGPYYLLWLRYDYWGQGTQVTVSS	low polyreactivity
QVQLVESGGGLVHAGGSLRLSCAASGSIFDYYALGWYRQAPGKERDLVASINSSVTGTYYADTVKGRFTISRDNAKNSVYLQMNSLKPEDTAVYYCAVKVYGRSGGYEYWGQGTQVTVSS	low polyreactivity
QVQLVESGGGLVQAGGSLRLSCAASGRILVVNAMGWYRQAPGKERELVAAISTTGGRTYYADSVKGRFTISRDNAKNTDYLQMISLKPEDTAVYYCAKDDGRFGRTHEHDYWGHGTQVTVSS	high polyreactivity
QVQLVESGGGLVQAGGSLRLSCAASGFIFLQYPMGWYRQAPGKERDLVAAITSGGGTNYADSVKGRFTISRDNAKNTVYLQMNSLKPEDTAVYYCAARTWPWVLGATQDDYWGQGTQVTVSS	low polyreactivity
QVQLVESGGGLVQAGGSLRLSCAASGRTYRAYTMGWYRQAPGKERELVAAISTPGGSTYYADSVKGRFTISRDNAKKTVYLQMIILKPEDNAVYYCAAGTFYYWLSYDYWGQGTKVTVSS	low polyreactivity
QVQHVESGGGLVQAGGSLRLSSAASGLTFYHYTMGWYRQAPGKERELVAAITKNGGSTYYADSVKGRFTISRDNAKNTVYLQMNSLKPEDTAVYYCNVGPRRVDRSRAASSDYDYWGQGTQVTVSS	high polyreactivity
QVQLVDSGGGLVQAGGSLRESCAASGSTFYYNDMGWSRQAPGKDRELVAAIRTSGSTNYAESVKGRFTLSRDNAKNTVYLQMNSLKPEDTEVYYCNAVVRHWFPGWYGRGDDYWGQGTQVTVSS	low polyreactivity
QVQLVESGGGLVQAGGSLRLSCAASGFTFKVYNAMGWYRQAPGKERELVAAISSSVGGTYYADSVKGRFTISRDYAKNTVYLQMNSLKPEDTAVYYCATDDFTYVVAKDGDYWGQGTQVTVSS	low polyreactivity
QVQLVESGGGLVQAGGSLRLSCAASGRIIGRYAMGWYRQAPGKEREFVAAISGSGGSTYYADSVKGRFTISRDNAKNTVYLQMNSLKPEDTAVYYCNALSVPDYDYWGQGTQVTVSS	high polyreactivity
QVQLVESGGGLVQSGGSLRLSCAASGIIFSDYAMGWYRQAPGKERELVATITRSVRTSYADSVKGRFTISRDNAKNTVYLQMNSLKPEDTAVYYCNADVVGAVIAYDYWGQGTQVTVSS	low polyreactivity

— the nanobody polyreactivity screen of Harvey et al. (2022)
